Reference: PMC5218534, “Structural and biochemical analyses of the DEAD-box ATPase Sub2 in association with THO or Yra1” (eLife, 2017)

Legend:
Sub2 (full-length) = biological target: T1, Sub2 (full-length) (Saccharomyces cerevisiae, UniProt Q07478); experiment: NADH enzyme-coupled ATPase assay; format: biochemical; details: 1 mM ATP; 10 µM poly(U) 20-mer RNA; 2 mM MgCl2, pH 7.0, 37 °C; no THO or Yra1
T1 construct: full-length, expressed in E. coli BL21-CodonPlus(DE3)-RIL with N-terminal GST tag removed by TEV
T1 sequence (Q07478 1-446): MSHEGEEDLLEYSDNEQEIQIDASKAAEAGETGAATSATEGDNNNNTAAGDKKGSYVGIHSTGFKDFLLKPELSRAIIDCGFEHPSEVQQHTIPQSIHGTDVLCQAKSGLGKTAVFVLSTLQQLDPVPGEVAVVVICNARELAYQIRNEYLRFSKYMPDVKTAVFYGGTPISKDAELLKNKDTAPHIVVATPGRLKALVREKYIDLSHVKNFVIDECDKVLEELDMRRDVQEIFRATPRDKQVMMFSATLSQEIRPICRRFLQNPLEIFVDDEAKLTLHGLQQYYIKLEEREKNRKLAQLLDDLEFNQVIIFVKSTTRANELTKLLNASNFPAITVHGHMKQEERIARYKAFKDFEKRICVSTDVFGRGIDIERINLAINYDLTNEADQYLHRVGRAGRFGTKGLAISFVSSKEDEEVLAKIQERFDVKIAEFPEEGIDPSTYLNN

[1] = biological target: THO core complex (THO*) (S. cerevisiae | S. bayanus) (UniProt P53552)
[2] = biological target: T2, DEAD-box ATPase Sub2, full length (S. cerevisiae, UniProt Q07478 1-446); experiment: cell-based or functional assay
T2 sequence (looked up): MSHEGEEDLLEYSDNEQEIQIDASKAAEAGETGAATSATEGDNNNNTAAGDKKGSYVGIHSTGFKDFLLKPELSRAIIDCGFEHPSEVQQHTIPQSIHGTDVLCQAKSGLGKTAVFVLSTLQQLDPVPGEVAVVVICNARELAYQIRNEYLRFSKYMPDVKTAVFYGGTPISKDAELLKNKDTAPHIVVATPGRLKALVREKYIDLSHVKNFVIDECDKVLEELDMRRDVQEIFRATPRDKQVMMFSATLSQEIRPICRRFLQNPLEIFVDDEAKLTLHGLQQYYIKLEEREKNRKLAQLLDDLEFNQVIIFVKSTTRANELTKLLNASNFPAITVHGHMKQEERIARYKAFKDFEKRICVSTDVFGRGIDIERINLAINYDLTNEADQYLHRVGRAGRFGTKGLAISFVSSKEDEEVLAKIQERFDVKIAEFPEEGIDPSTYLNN

Sub2 (a.a. 62-446) = biological target: T3, Sub2 (a.a. 62-446) (S. cerevisiae, UniProt Q07478 62-446); experiment: crystal structure; Sub2 (62-446), Yra1-C* and poly(U) 15-mer RNA mixed 1:1.2:1.2 with 2 mM MgCl2 and ADP•BeF3; sitting drop, 4 °C, 100 mM Bis-Tris pH 5.5, 20% PEG3350, 0.2 M ammonium acetate; 2.6 Å; details: both partners purified
T3 construct: source: E. coli BL21-CodonPlus(DE3)-RIL, purified (glutathione sepharose, TEV, mono Q, Superdex 200); not shown: GST, N-terminal, cleaved
T3 sequence (looked up): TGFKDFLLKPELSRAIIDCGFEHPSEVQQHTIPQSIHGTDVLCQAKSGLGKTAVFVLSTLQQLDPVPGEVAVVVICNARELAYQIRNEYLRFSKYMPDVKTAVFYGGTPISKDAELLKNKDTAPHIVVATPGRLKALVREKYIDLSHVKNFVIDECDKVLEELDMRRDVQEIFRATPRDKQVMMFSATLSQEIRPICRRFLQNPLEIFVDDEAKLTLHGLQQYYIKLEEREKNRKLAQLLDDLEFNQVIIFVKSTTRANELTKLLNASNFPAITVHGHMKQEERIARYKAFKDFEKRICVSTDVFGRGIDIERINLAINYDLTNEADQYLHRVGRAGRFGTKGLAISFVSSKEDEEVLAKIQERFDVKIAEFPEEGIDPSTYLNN

Yra1-C = biological target: T4, Yra1-C (UniProt Q12159 185-226); experiment: EMSA; Yra1-C without Sub2; EMSA: 20 nM RNA, 20 mM HEPES pH 7.0, 100 mM NaCl, 1 mM TCEP, 2 mM MgCl2, 5% glycerol, 0.5 U/ul SUPERase-In, 1 mM nucleotide as indicated; room temperature, 10 min; 5% native PAGE, 45 mM Tris-borate; details: protein: recombinant; tags: N-terminal GST removed by TEV; label: 5' Alexa488; single strand
T4 chain: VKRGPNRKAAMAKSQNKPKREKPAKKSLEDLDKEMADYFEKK

Sub2 = biological target: T5, Sub2 (UniProt Q07478 1-446); experiment: EMSA; 1 mM ATP-gamma-S, 2 mM MgCl2; EMSA: 20 nM RNA, 20 mM HEPES pH 7.0, 100 mM NaCl, 1 mM TCEP, 2 mM MgCl2, 5% glycerol, 0.5 U/ul SUPERase-In, 1 mM nucleotide as indicated; room temperature, 10 min; 5% native PAGE, 45 mM Tris-borate; details: protein: recombinant; tags: N-terminal GST removed by TEV; label: 5' Alexa488; single strand
T5 sequence: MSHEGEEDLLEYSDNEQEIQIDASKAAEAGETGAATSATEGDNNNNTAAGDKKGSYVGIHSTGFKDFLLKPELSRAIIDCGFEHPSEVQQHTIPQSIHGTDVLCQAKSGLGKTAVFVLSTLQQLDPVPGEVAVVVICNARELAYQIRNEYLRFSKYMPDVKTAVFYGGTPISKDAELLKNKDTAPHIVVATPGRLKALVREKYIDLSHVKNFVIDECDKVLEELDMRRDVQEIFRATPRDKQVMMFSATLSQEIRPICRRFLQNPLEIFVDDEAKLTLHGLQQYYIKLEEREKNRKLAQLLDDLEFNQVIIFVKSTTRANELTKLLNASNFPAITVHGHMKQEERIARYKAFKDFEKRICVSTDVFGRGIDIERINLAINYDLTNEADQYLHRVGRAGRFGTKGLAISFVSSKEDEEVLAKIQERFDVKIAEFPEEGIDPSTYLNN

Sub2;Yra1-C = biological target: T6, Sub2;Yra1-C (Saccharomyces cerevisiae?;Saccharomyces …, UniProt Q07478;Q12159 1-446;185-226, |); experiment: EMSA; 1 mM ATP-gamma-S, 2 mM MgCl2; Yra1-C promotes Sub2-RNA binding, trimeric complex; EMSA: 20 nM RNA, 20 mM HEPES pH 7.0, 100 mM NaCl, 1 mM TCEP, 2 mM MgCl2, 5% glycerol, 0.5 U/ul SUPERase-In, 1 mM nucleotide as indicated; room temperature, 10 min; 5% native PAGE, 45 mM Tris-borate; details: protein: recombinant;recombinant; tags: N-terminal GST removed by TEV;N-terminal GST removed by TEV; copies: 1;1; label: 5' Alexa488; single strand
T6 sequence 1: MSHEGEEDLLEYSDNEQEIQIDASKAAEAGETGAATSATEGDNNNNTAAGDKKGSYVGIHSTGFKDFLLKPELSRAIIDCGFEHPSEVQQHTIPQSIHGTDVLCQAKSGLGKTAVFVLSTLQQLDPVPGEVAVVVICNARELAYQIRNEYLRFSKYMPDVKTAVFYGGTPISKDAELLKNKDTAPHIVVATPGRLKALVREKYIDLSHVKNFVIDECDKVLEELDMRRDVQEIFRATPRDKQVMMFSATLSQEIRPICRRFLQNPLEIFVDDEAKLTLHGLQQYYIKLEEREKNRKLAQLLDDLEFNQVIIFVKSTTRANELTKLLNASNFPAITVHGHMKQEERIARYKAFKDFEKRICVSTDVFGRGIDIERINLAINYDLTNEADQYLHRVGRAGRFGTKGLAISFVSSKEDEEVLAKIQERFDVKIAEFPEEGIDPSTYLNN
T6 sequence 2: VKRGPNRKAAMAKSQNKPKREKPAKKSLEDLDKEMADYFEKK

Yra1 C-box = biological target: T7, Yra1 C-box (UniProt Q12159 208-226); experiment: EMSA; C-box without Sub2; EMSA: 20 nM RNA, 20 mM HEPES pH 7.0, 100 mM NaCl, 1 mM TCEP, 2 mM MgCl2, 5% glycerol, 0.5 U/ul SUPERase-In, 1 mM nucleotide as indicated; room temperature, 10 min; 5% native PAGE, 45 mM Tris-borate; details: label: 5' Alexa488; single strand
T7 chain: AKKSLEDLDKEMADYFEKK

Sub2 (62-446);Yra1-C* = biological target: T8, Sub2 (62-446);Yra1-C* (Saccharomyces cerevisiae?;Saccharomyces …, UniProt Q07478;Q12159 62-446;200-226, |); experiment: X-ray crystallography 2.6 A; ADP-BeF3; EMSA: 20 nM RNA, 20 mM HEPES pH 7.0, 100 mM NaCl, 1 mM TCEP, 2 mM MgCl2, 5% glycerol, 0.5 U/ul SUPERase-In, 1 mM nucleotide as indicated; room temperature, 10 min; 5% native PAGE, 45 mM Tris-borate; details: protein: recombinant;recombinant; tags: N-terminal GST removed by TEV;N-terminal GST removed by TEV; copies: 1;1; single strand
T8 sequence 1: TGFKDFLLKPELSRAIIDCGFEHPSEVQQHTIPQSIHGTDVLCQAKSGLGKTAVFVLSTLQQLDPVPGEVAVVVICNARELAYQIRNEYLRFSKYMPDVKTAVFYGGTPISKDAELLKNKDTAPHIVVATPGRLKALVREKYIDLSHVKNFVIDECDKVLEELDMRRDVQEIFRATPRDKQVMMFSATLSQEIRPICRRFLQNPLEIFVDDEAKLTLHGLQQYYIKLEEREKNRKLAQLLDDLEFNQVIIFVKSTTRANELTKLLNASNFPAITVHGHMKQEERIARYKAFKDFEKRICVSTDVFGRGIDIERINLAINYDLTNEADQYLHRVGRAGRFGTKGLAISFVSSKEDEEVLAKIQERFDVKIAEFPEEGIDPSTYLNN
T8 sequence 2: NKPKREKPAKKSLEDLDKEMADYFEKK

Chain of THO core complex (THO*) (S. cerevisiae | S. bayanus) (P53552 whole entry, looked up, one chain of several): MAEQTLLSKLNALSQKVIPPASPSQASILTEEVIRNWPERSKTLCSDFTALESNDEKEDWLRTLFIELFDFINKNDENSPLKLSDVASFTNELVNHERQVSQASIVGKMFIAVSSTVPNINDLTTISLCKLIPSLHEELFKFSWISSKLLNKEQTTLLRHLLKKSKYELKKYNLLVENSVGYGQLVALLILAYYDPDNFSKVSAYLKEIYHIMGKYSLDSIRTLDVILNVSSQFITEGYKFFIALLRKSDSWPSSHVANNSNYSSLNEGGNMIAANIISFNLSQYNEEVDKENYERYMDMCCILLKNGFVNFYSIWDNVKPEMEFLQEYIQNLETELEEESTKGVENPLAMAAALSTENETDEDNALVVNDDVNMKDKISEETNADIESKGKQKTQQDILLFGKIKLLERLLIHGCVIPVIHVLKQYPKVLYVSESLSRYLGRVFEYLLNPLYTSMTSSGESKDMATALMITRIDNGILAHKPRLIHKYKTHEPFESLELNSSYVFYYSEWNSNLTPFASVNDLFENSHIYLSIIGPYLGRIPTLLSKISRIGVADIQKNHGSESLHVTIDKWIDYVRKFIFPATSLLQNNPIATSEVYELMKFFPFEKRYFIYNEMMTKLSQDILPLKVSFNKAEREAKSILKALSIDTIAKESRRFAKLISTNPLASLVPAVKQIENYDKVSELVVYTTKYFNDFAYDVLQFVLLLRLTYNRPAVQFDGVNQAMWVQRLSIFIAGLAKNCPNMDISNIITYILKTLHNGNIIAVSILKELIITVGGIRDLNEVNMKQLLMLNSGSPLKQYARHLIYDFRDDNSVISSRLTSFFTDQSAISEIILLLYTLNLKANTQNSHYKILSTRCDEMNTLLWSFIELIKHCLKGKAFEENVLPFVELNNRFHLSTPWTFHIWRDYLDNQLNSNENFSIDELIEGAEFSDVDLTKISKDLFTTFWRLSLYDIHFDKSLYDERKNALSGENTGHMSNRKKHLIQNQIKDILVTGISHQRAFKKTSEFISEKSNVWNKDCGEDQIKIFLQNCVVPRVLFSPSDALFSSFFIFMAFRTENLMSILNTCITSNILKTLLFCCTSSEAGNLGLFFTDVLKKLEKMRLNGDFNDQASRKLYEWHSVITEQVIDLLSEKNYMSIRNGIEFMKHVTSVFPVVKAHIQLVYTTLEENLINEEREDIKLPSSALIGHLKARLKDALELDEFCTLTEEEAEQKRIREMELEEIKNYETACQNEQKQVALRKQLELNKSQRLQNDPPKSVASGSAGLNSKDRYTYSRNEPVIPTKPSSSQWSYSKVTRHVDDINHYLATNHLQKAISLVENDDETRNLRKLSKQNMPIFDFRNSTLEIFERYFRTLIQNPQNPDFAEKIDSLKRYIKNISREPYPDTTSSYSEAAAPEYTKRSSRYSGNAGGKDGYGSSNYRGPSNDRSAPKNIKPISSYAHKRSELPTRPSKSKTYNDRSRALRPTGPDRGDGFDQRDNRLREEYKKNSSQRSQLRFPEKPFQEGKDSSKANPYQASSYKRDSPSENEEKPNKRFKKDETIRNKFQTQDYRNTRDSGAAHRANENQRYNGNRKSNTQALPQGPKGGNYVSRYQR

Question: `Nc1ncnc2c1ncn2[C@@H]1O[C@H](COP(=O)(O)OP(=O)(O)OP(=O)(O)O)[C@@H](O)[C@H]1O` [ATP] was tested. Which “NADH enzyme-coupled ATPase assay” value (Sub2 (full-length)) did it give?
Answer: Sub2 ATPase activity (mole of ADP produced per second per mole of Sub2)

B1: DEAD-box ATPase Sub2, full length (enzyme)
chain: MSHEGEEDLLEYSDNEQEIQIDASKAAEAGETGAATSATEGDNNNNTAAGDKKGSYVGIHSTGFKDFLLKPELSRAIIDCGFEHPSEVQQHTIPQSIHGTDVLCQAKSGLGKTAVFVLSTLQQLDPVPGEVAVVVICNARELAYQIRNEYLRFSKYMPDVKTAVFYGGTPISKDAELLKNKDTAPHIVVATPGRLKALVREKYIDLSHVKNFVIDECDKVLEELDMRRDVQEIFRATPRDKQVMMFSATLSQEIRPICRRFLQNPLEIFVDDEAKLTLHGLQQYYIKLEEREKNRKLAQLLDDLEFNQVIIFVKSTTRANELTKLLNASNFPAITVHGHMKQEERIARYKAFKDFEKRICVSTDVFGRGIDIERINLAINYDLTNEADQYLHRVGRAGRFGTKGLAISFVSSKEDEEVLAKIQERFDVKIAEFPEEGIDPSTYLNN
Question: B1 was tested. Which stimulation of the Sub2 ATPase activity by THO* (NADH-coupled ATPase assay, 2 μM Sub2, 2 μM THO, 10 μM poly(U) RNA, 37 °C) [1] did it give?
Answer: 3.5 fold

Question: For VKRGPNRKAAMAKSQNKPKREKPAKKSLEDLDKEMADYFEKK (domain or fragment, S. cerevisiae, UniProt Q12159 185-226, looked up) [C-terminal fragment of Yra1, Yra1-C (a.a. 185-226)], which “stimulation of the Sub2 ATPase activity by Yra1-C (NADH-coupled ATPase assay, 2 μM Sub2, 10 μM Yra1, 10 μM poly(U) RNA, 37 °C)” value [2] is on record?
Answer: ~2 fold

B2: truncated Yra1-C (Yra1-C*, a.a. 200-226) (domain or fragment, S. cerevisiae, UniProt Q12159 200-226, looked up)
chain: NKPKREKPAKKSLEDLDKEMADYFEKK
notes: source: E. coli BL21-CodonPlus(DE3)-RIL, purified (glutathione sepharose, TEV, mono S, Superdex 200); not shown: GST, N-terminal, cleaved
Question: Does B2 bind (Sub2 (a.a. 62-446))?
Answer: binds

Question: Does UUUUUUUUUUUUUUUUUUUU (ssRNA) [poly(U) 20-mer RNA] bind (Yra1-C)?
Answer: binds

Question: Does UUUUUUUUUUUUUUUUUUUU (ssRNA) [poly(U) 20-mer RNA] bind (Sub2)?
Answer: binds

Question: Does UUUUUUUUUUUUUUUUUUUU (ssRNA) [poly(U) 20-mer RNA] bind (Sub2;Yra1-C)?
Answer: binds

Question: Does UUUUUUUUUUUUUUUUUUUU (ssRNA) [poly(U) 20-mer RNA] bind (Yra1 C-box)?
Answer: no binding

Question: Does UUUUUUUUUUUUUUU (ssRNA) [poly(U) 15-mer RNA] bind (Sub2 (62-446);Yra1-C*)?
Answer: binds
